Reference: paper PMC4403245

Molecular target: GST-tagged KAHRP fragment K1D (Plasmodium falciparum) (UniProt P06719)
Test: SPR

Sequence of UniProt P06719 (P06719 35-657): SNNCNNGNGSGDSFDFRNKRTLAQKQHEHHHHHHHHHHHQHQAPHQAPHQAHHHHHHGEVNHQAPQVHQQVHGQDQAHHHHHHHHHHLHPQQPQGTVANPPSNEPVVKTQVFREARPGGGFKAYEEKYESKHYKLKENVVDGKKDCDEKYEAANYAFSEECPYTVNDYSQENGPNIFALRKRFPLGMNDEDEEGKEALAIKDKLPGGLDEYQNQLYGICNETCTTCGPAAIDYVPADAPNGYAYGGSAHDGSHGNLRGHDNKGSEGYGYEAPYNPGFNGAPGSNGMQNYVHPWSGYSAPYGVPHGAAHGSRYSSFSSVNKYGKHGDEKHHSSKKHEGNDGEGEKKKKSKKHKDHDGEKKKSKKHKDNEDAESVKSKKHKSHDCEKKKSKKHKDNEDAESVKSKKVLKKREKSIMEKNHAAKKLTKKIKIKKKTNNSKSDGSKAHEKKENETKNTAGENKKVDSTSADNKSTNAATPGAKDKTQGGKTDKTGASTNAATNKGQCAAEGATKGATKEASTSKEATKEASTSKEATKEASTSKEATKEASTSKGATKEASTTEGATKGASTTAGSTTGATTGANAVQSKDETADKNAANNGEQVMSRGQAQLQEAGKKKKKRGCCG

Row | Substance | Kd [nM] | koff [s⁻¹] | kon [M⁻¹ s⁻¹]
1 | MBP-tagged D3 subdomain of the ankyrin R membrane-binding domain (from UniProt P16157 404-601) (domain or fragment) | 46 | 0.00137 | 29900
2 | MBP-tagged ankyrin R N-terminal 89 kDa membrane binding domain (from UniProt P16157 1-827) (domain or fragment) | 38 | 0.00161 | 42800
